PMC7455749, “A leap in quantum efficiency through light harvesting in photoreceptor UVR8” (Nature Communications, 2020)

Columns and labels:
[1] = target: the molecule itself; assay: not stated; oligomeric state of the UVR8 mutants without UV-B; method not given; UVR8 lysis buffer (150 mM NaCl, 25 mM Tris, pH 8.0), room temperature
[2] = target: the molecule itself; assay: SEC; Superdex200 size column run after the sub-nanosecond TCSPC measurements (290 nm pulsed LED, 10 uM samples); dimer to monomers

Row | Protein | stoichiometry N [1] | binding result [2]
1 | UVR8 mutant 6Wd + 3Wp (all four tryptophans of the 4Wc pyramid center changed to phenylalanine, on the W400F template) (receptor, Arabidopsis thaliana, UniProt Q9FN03 1-440, looked up, UVR8, Arabidopsis thaliana; W400F template) MAEDMAADEVTAPPRKVLIISAGASHSVALLSGDIVCSWGRGEDGQLGHGDAEDRPSPTQLSALDGHQIVSVTCGADHTVAYSQSGMEVYSWGFGDFGRLGHGNSSDLFTPLPIKALHGIRIKQIACGDSHCLAVTMEGEVQSWGRNQNGQLGLGDTEDSLVPQKIQAFEGIRIKMVAAGAEHTAAVTEDGDLYGWGWGRYGNLGLGDRTDRLVPERVTSTGGEKMSMVACGFRHTISVSYSGALYTYGWSKYGQLGHGDLEDHLIPHKLEALSNSFISQISGGFRHTMALTSDGKLYGWGWNKFGQVGVGNNLDQCSPVQVRFPDDQKVVQVSCGFRHTLAVTERNNVFAWGRGTNGQLGIGESVDRNFPKIIEALSVDGASGQHIESSNIDPSSGKSFVSPAERYAVVPDETGLTDGSSKGNGGDISVPQTDVKRVRI | 2 | 
2 | Arabidopsis thaliana UVR8 (UV … LOCUS 8) W400F, redefined as wild type (WT) (receptor, UniProt Q9FN03 1-440, looked up, UVR8, Arabidopsis thaliana; the construct holds residue 400 (W400F); also called UVR8 WT) MAEDMAADEVTAPPRKVLIISAGASHSVALLSGDIVCSWGRGEDGQLGHGDAEDRPSPTQLSALDGHQIVSVTCGADHTVAYSQSGMEVYSWGWGDFGRLGHGNSSDLFTPLPIKALHGIRIKQIACGDSHCLAVTMEGEVQSWGRNQNGQLGLGDTEDSLVPQKIQAFEGIRIKMVAAGAEHTAAVTEDGDLYGWGWGRYGNLGLGDRTDRLVPERVTSTGGEKMSMVACGWRHTISVSYSGALYTYGWSKYGQLGHGDLEDHLIPHKLEALSNSFISQISGGWRHTMALTSDGKLYGWGWNKFGQVGVGNNLDQCSPVQVRFPDDQKVVQVSCGWRHTLAVTERNNVFAWGRGTNGQLGIGESVDRNFPKIIEALSVDGASGQHIESSNIDPSSGKSFVSPAERYAVVPDETGLTDGSSKGNGGDISVPQTDVKRVRI |  | binds
